The values that follow come from patent publication US20110091993A1 (SEKISUI MEDICAL, published 2011).

Assay [1] concerns the target T1, purified human soluble LR11 (human, UniProt Q92673 82-2137, limits assumed).
T1 construct: Natural shed soluble form from serum (Lot. 061208); Also used for native soluble LR11 measured directly in human serum and cerebrospinal fluid; also called purified human LR11; soluble LR11 in human serum
In words: sandwich ELISA, immobilized mouse IgG, liquid-phase biotinylated M3. Background: ELISA stands for enzyme-linked immunosorbent assay.

In assay [2] the target is T2, purified rabbit soluble LR11 (rabbit, UniProt Q95209 82-2136, limits assumed).
T2 construct: also called purified rabbit LR11; soluble LR11 in rabbit serum
T2 sequence (Q95209 82-2136 limits assumed): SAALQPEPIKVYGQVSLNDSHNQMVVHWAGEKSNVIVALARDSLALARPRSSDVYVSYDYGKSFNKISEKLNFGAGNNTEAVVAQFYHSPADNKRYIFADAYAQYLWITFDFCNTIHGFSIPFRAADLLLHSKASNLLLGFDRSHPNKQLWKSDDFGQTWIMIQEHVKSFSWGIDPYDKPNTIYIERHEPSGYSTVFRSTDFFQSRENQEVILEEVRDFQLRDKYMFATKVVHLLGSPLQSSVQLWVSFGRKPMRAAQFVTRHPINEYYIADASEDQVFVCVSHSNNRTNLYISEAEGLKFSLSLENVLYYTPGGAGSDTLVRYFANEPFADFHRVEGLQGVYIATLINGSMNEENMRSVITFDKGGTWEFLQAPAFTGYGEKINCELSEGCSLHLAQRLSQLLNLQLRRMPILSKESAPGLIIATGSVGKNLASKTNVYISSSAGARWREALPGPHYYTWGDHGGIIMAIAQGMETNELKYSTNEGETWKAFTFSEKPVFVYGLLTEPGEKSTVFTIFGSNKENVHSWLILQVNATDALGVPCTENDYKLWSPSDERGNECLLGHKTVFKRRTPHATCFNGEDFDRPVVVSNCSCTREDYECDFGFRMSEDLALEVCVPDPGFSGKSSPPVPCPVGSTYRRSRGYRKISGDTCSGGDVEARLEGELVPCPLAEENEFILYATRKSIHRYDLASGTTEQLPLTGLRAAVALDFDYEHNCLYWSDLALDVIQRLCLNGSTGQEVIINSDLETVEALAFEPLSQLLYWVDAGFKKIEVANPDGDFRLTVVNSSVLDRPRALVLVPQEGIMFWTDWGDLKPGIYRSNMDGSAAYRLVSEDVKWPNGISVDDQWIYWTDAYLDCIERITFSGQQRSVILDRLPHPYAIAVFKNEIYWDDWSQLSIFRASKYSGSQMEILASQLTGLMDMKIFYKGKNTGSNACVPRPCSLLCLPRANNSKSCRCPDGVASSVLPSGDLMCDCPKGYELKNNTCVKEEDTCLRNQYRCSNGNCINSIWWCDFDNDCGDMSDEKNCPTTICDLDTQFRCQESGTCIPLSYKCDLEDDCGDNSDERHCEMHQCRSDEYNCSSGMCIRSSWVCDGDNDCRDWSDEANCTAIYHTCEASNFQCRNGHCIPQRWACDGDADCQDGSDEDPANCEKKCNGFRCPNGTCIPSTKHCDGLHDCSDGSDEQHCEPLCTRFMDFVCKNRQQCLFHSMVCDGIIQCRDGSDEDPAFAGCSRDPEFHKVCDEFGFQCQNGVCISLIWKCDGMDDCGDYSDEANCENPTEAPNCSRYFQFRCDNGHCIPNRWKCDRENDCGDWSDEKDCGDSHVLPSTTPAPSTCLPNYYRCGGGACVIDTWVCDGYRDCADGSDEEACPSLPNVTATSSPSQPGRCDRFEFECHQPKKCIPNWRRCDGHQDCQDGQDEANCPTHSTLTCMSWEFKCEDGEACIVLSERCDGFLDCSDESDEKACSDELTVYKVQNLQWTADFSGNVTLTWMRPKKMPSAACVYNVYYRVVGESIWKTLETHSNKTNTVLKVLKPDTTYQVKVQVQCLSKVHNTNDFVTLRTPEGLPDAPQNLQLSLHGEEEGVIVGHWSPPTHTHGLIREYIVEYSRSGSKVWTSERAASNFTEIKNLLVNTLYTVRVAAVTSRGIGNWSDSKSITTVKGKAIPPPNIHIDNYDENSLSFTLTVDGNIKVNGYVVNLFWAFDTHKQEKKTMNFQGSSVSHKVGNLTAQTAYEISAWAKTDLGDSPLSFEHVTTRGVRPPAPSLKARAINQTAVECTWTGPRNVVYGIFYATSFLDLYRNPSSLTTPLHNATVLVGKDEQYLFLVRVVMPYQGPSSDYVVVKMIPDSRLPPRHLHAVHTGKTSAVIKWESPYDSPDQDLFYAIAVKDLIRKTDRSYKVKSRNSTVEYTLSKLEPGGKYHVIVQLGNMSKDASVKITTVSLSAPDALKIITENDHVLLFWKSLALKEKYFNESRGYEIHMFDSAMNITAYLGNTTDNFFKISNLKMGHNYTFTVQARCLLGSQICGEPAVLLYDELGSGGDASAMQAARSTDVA
Described as above.

Assay [3] deals with T1, purified human soluble LR11. In words: sandwich ELISA, immobilized mouse IgG, liquid-phase biotinylated M5.
The target in assay [4] is T2, purified rabbit soluble LR11. Described as above.
For assay [5], the target named is T1, purified human soluble LR11. The assay can be described thus: sandwich ELISA, immobilized mouse IgG, liquid-phase biotinylated R14.
Assay [6] addresses T2, purified rabbit soluble LR11. The assay is described as above.
The target of assay [7] is T1, purified human soluble LR11. The assay can be described thus: sandwich ELISA, immobilized mouse IgG, liquid-phase biotinylated R23.
In assay [8] the target is T2, purified rabbit soluble LR11. The description is as above.
In assay [9] the target is T1, purified human soluble LR11. In words: sandwich ELISA, immobilized mouse IgG, liquid-phase biotinylated A2-2-3.
Assay [10] addresses T2, purified rabbit soluble LR11. The assay is described as above.
Assay [11] addresses T1, purified human soluble LR11. The assay can be described thus: sandwich ELISA, immobilized mouse IgG, liquid-phase biotinylated mouse IgG.
The target in assay [12] is T2, purified rabbit soluble LR11. The assay is described as above.
The target of assay [13] is T1, purified human soluble LR11. The assay can be described thus: affinity capture from serum on RAP/GST bound to Glutathione Sepharose.
Assay [14] has as its target T2, purified rabbit soluble LR11. The assay is described as above.

T1 sequence (Q92673 82-2137 limits assumed): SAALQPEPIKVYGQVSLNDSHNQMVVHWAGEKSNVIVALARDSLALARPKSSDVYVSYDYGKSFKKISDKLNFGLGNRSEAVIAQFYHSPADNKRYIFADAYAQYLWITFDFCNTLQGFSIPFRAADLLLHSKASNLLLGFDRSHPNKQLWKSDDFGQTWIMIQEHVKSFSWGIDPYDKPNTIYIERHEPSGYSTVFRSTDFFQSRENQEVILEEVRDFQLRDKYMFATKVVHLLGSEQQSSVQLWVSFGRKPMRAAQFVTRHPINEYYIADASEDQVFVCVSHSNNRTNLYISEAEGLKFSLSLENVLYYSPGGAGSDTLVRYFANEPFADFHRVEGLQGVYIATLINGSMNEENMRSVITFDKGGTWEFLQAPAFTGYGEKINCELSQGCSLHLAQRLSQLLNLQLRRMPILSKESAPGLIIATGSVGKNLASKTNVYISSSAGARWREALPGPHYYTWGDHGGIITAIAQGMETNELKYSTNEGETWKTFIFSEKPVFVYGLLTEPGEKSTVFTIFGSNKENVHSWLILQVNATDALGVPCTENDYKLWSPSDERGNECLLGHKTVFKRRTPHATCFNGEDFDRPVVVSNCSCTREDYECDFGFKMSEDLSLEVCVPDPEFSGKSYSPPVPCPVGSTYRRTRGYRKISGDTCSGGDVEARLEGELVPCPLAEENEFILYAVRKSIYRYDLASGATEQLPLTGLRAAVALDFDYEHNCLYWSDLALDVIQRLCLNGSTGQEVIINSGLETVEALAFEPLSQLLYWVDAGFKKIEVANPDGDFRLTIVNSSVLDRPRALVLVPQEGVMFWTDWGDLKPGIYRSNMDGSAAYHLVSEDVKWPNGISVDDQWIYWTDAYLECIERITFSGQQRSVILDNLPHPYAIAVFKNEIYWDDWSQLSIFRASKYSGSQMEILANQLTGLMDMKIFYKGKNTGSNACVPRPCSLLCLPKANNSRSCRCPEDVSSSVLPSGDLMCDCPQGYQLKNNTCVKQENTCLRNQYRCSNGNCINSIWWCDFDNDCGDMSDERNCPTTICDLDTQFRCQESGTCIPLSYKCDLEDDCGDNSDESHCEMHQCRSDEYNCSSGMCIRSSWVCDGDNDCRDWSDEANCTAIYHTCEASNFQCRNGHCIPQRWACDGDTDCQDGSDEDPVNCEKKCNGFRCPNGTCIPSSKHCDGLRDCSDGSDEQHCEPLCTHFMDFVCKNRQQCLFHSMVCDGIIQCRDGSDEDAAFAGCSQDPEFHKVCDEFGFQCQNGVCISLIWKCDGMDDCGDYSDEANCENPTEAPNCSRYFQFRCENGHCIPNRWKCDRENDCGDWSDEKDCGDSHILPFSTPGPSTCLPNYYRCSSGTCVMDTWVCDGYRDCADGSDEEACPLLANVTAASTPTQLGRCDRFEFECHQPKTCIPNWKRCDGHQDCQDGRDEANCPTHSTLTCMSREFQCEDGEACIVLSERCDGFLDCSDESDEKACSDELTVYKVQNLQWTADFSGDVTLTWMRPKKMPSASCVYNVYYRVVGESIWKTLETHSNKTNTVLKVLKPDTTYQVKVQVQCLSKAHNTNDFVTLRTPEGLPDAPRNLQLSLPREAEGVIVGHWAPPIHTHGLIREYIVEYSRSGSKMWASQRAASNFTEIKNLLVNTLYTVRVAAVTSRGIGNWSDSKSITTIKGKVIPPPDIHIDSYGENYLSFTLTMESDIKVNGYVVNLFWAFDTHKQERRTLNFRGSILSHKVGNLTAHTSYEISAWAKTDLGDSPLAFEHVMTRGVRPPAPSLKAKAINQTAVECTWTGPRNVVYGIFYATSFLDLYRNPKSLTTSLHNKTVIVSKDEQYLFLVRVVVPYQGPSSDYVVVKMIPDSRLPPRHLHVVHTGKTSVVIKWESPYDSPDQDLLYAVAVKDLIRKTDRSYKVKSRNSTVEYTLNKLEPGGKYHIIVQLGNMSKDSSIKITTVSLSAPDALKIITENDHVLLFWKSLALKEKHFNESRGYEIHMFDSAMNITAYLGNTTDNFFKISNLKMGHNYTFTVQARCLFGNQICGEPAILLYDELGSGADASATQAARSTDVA

mouse IgG (negative control) (antibody): the Absorbance (492 nm) (Absorbance (492 nm)) in [1] is 0.024; in [2], -0.017; in [3], 0.007; in assay [4], -0.017; in assay [5], -0.017; in [6], -0.019. For the same molecule, the Absorbance (492 nm) (Absorbance (492 nm)) in assay [7] is -0.02; in [8], -0.026; in assay [9] it was 0.015; in assay [10] it was -0.017; in assay [11], -0.003; in assay [12], 0.043.

B1: RAP/GST fusion protein (other, human, UniProt P30533 35-357, looked up)
chain: YSREKNQPKPSPKRESGEEFRMEKLNQLWEKAQRLHLPPVRLAELHADLKIQERDELAWKKLKLDGLDEDGEKEARLIRNLNVILAKYGLDGKKDARQVTSNSLSGTQEDGLDDPRLEKLWHKAKTSGKFSGEELDKLWREFLHHKEKVHEYNVLLETLSRTEEIHENVISPSDLSDIKGSVLHSRHTELKEKLRSINQGLDRLRRVSHQGYSTEAEFEEPRVIDLWDLAQSANLTDKELEAFREELKHFEAKIEKHNHYQKQLEIAHEKLRHAESVGDGERVSRSREKHALLEGRTKELGYTVKKHLQDLSGRISRARHNEL
notes: Expressed in E. coli DH5alpha and adsorbed on Glutathione Sepharose 4 FF; also called RAP-Sepharose resin; RAP (receptor associated protein); not shown: GST encoded by vector pGEX2T (GE Healthcare Bio Science)
B1: the binding result in [13] and in assay [14] was “binds” throughout.
